From the supplement of paper PMC7877785
± gives the uncertainty stated by the source.

Assay: self-splicing fitness, log relative to wild type (ln ratio); higher = more splicing; Tetrahymena group I intron in knt gene, E. coli kanamycin selection, DiMSum; sequences stand for … in CUCUCU…GGAGGGAAAAGUUAUCAGGCAUGCACCUGGUAGCUAGUCUUUAAACCAAUAGAUUGCAUCGGUUUAAAAGGCAAGACCGUCAAAUUGCGGGAAAGGGGUCAACAGCCGUUCAGUACCAAGUCUCAGGGGAAACUUUGAGAUGGCCUUGCAAAGGGUAUGGUAAUAAGCUGACGGACAUGGUCCUAACCACGCAGCCAAGUCCUAAGUCAACAGAUCUUCUGUUGAUAUGGAUGCAGUUCACAGACUAAAUGUCGGUCGGGGAAGAUGUAUUCUUCUCAUAAGAUAUAGUCGGACCUCUCCUUAAUGGGAGCUAGCGGAUGAAGUGAUGCAACACUGGAGCCGCUGGGAACUAAUUUGUAUGCGAAAGUAUAUUGAUUAGUUUUGGAGUACUCGUGGUCG
Method in brief: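 Pooled colonies went to amplicon sequencing on an Illumina HiSeq 2500 after six replicate transformations. The plates were LB agar with 100 μg/mL carbenicillin, 50 μM IPTG and 0.2% rhamnose, with or without 25 μg/mL kanamycin, incubated overnight at 37°C or 30°C. The E. coli BL21(DE3) library had all eight P1ex-region intron nucleotides randomised, the intron placed in the knt kanamycin-resistance gene on pET-22b(+). DiMSum fitness is the error-weighted combination of replicate fold changes, kanamycin against none, normalised to wild type.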

| Sequence | self-splicing fitness (ln) (30 °C) | self-splicing fitness (ln) (37 °C) |
| --- | --- | --- |
| CAGGAGCAAUAUUACGUUCA | -2.89 ± 0.12 | -3.54 ± 0.2 |
| UAGGAGCAAUAUUACGUGCG | -2.89 ± 0.17 | -0.951 ± 0.16 |
| UCAAAGCAAUAUUACGCGCU | -3.63 ± 0.47 | -2.53 ± 0.45 |
| UAACAGCAAUAUUACGGUCU | -1.5 ± 0.068 | -0.783 ± 0.075 |
| CGCAAGCAAUAUUACGGUUU | -2.95 ± 0.17 | -2.53 ± 0.18 |
| CCCGAGCAAUAUUACGCUUU | – | -1.35 ± 0.19 |
| AAACAGCAAUAUUACGUAAC | -4.39 ± 0.24 | -1.97 ± 0.14 |
| UACAAGCAAUAUUACGAUAU | -2.75 ± 0.15 | -1.66 ± 0.19 |
| CCCGAGCAAUAUUACGGUAA | -3.81 ± 0.26 | -1.46 ± 0.16 |
| UACAAGCAAUAUUACGAACU | -1.48 ± 0.089 | -0.628 ± 0.1 |
| AGGAAGCAAUAUUACGCUUC | -2.44 ± 0.28 | – |
| AGAUAGCAAUAUUACGUCGU | -1.21 ± 0.082 | -0.136 ± 0.099 |
| GGGUAGCAAUAUUACGACUA | -0.339 ± 0.1 | 0.878 ± 0.15 |
| GAAUAGCAAUAUUACGGAGG | -4.24 ± 0.3 | -2.27 ± 0.22 |
| UUGUAGCAAUAUUACGAGGG | – | -1.87 ± 0.4 |
| GUUUAGCAAUAUUACGUGAA | -1.35 ± 0.12 | -2.04 ± 0.18 |
| CGAUAGCAAUAUUACGCUGC | -3.15 ± 0.36 | -2.21 ± 0.5 |
| GACCAGCAAUAUUACGUGCU | -2.85 ± 0.12 | -2.63 ± 0.21 |

| Sequence | self-splicing fitness (ln) (30 °C) | self-splicing fitness (ln) (37 °C) |
| --- | --- | --- |
| UACCAGCAAUAUUACGAAGA | -1.63 ± 0.097 | -0.519 ± 0.11 |
| GUAUAGCAAUAUUACGGACG | -2.73 ± 0.41 | -1.3 ± 0.33 |
| AGUAAGCAAUAUUACGAAUA | -1.84 ± 0.38 | – |
| AAGGAGCAAUAUUACGGAAA | – | -0.83 ± 0.24 |
| CCUAAGCAAUAUUACGUUGC | -3.6 ± 0.24 | -3.42 ± 0.34 |
| GAAGAGCAAUAUUACGAACG | – | -2.41 ± 0.33 |
| CUGGAGCAAUAUUACGUACG | -0.531 ± 0.089 | 0.504 ± 0.12 |
| GCCCAGCAAUAUUACGCCGU | -0.724 ± 0.092 | -0.492 ± 0.094 |
| GCCGAGCAAUAUUACGAGCC | -3.06 ± 0.14 | -2.3 ± 0.24 |
| AAGCAGCAAUAUUACGGUAG | -3.38 ± 0.15 | -3.25 ± 0.2 |
| CGUGAGCAAUAUUACGUGAA | – | -1.17 ± 0.22 |
| GAUGAGCAAUAUUACGACUC | -1.68 ± 0.14 | -0.273 ± 0.24 |
| AACUAGCAAUAUUACGUCCA | -0.578 ± 0.094 | -0.0353 ± 0.11 |
| AGCAAGCAAUAUUACGCACU | -1.89 ± 0.11 | -1.37 ± 0.14 |
| AGCUAGCAAUAUUACGACAU | -0.509 ± 0.012 | -0.147 ± 0.032 |
| GUCGAGCAAUAUUACGGUCC | -3.17 ± 0.22 | -0.877 ± 0.17 |
| AGAUAGCAAUAUUACGAUUG | -1.65 ± 0.11 | -1.81 ± 0.18 |
